From PMC10442045

Experiments:
Conditions in all cases: LightShift EMSA: 1x binding buffer, 2.5% glycerol, 5 mM MgCl2, 0.05% NP-40, 5 mM EDTA, 20 ng probe, 0-0.5 ng protein (so in the source), 20 uL, 20 min at 26 C; 6% …
[1] = target: T1, OxyR (Pseudomonas aeruginosa PA14) (UniProt A0A0H2ZI92); assay: competition
T1 sequence: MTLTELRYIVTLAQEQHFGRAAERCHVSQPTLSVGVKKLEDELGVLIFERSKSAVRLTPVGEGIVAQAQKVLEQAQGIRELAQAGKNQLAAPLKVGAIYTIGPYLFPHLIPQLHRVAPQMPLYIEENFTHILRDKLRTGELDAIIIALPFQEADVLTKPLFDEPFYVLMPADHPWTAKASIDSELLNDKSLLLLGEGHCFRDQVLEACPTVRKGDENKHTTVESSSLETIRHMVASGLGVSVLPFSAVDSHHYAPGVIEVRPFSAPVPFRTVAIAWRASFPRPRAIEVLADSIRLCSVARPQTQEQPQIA

[2] = target: T2, OmpR (Pseudomonas aeruginosa PA14) (UniProt A0A0H2ZIR0); assay: competition
T2 sequence: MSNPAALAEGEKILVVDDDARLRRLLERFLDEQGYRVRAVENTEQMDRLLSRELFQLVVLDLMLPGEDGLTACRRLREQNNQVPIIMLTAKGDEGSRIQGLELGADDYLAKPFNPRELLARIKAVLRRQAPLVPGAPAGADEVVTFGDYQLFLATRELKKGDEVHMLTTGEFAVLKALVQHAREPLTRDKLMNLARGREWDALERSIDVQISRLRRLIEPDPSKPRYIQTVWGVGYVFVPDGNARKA

[3] = target: T1, OxyR (Pseudomonas aeruginosa PA14); assay: EMSA
[4] = target: T2, OmpR (Pseudomonas aeruginosa PA14); assay: EMSA

**Q.** With “CGATGCGCCCGTCGGCGTAGCGTTTATGTAGTTCAGCGCGCGATACACCTGTCCCTTGAAGGCGGAGGGATACGGGCTTTCCTCGTAGAAGCCGGTGGCTTCGTTGAGCACCTCCCAATCGCTGTCCTGGGTCAGCACGGCGATTCCGGGCGGGGTCGCATGATACAGGCCGTTCGTGGGGCGCCAGTATTCGATGGTTCGGGGCAT (double strand) [Unrelated DNA (control)]” as the sequence, how does the binding [1] read?
**A.** Its binding is “no binding”.

**Q.** What about the binding [2] of the same sequence?
**A.** The binding was “no binding”.

**Q.** How did the binding [3] turn out when “GGGAGTCCAACGAAAATTTTATTTTGCAAATCCATAGACCTGTTCTAGCGTCTTTTGTAGTTCGTCGCCAGTGACGGACCAGAGGGATCGCCAAGGACAGGTTCTGCGCCGTTTTCCCTGTCATGCCTGTGATCCAGCAAGGGACTGCGATGATCAGGGCATCCCCCGATGCATTGCGCCCCCACCATTGCATCGGAGTCAGCCGCC (double strand) [Bio-PH3-T6SS left]” was run?
**A.** Its binding is “binds”.

**Q.** What about the binding [4] of the same sequence?
**A.** Its binding is “binds”.
